The results in this text go back to article PMC5499675 (2017).

In assay [1] the target is T1, IGRP peptide on HLA-DRA*01:01 / HLA-DRB1*04:01 (human). In words: proliferation.
Assay [2] deals with T2, IGRP peptide on HLA-DRA*01:01 / HLA-DRB1*04:01 (human).
T2 peptide: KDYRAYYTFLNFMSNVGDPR
In words: proliferation.

The target in assay [3] is IGRP peptide on HLA-DRA*01:01 / HLA-DRB1*04:01 (human). In words: multimer staining.
Assay [4] deals with T3, influenza hemagglutinin peptide on HLA-DRA*01:01 / HLA-DRB1*04:01 (human).
T3 peptide: PRYVKQNTLKLAT
In words: multimer staining.

The target in assay [5] is T1, IGRP peptide on HLA-DRA*01:01 / …. In words: multimer staining. This is another data set of the same source.
Assay [6] deals with T2, IGRP peptide on HLA-DRA*01:01 / …. Kind of assay: multimer staining.

B1: Expanded TCR clonotype from subject T1D4 (Sequences 3 and 4) (TCR)
alpha TRAV2 TRAJ15 CDR3: CAVEDLNQAGTALIF
beta TRBV5-1 TRBJ2-1 CDR3: CASSLALGQGNQQFF
As for B1, the binding result in assay [1] is reported as “no recognition”; in assay [2], “no recognition”; in assay [3], “recognises”; in assay [4], “no recognition”.

B2: Expanded TCR clonotype from subject T1D2 (Sequences 1 and 2) (TCR)
alpha TRAV29 TRAJ40 CDR3: CAATRTSGTYKYIF
beta TRBV6-6 TRBJ2-3 CDR3: CASSPWGAGGTDTQYF
Take B2: the binding result was “no recognition” in assay [3], “recognises” in assay [5], “no recognition” in assay [6] and “no recognition” in assay [4].
